Laboratory results taken from PMC8770954 (2021).
Residue numbers refer to the chain shown, from its start. No end group written: not given here.

B1: Rh7B2 IgG1 (antibody, V domains shown)
VH: EVQLVESGGGLVQPGGSLRLSCAASGFTFTEYYMSWVRQAPGKGLEWVSYISKNGEYSYYADSVKGRFTISRDNAKNSLSLQMSSLRAEDTAVYYCTRADGLTYFSELLQYIFDLWGQGVLVTVSS
VL: DIVMTQSPDSLAVSLGERVTINCKSSQTLLYSSNNRHSIAWYQQKPGQAPKLLIYWASMRLSGVPNRFSGSGSGTDFTLTISGLQAEDVAVYYCHQYSSHPPTFGQGTKVEIK
B2: RhDH827 IgG1 (antibody, V domains shown)
VH: EVQLVESGGGLVQPGGSLRLSCAASGFTFSNCAMHWVRQAPGKGLEWVAVISYHGSNKYYADYVKGRFTISRDNSKNMLYLQMNNLKLEDTAVYYCAREGGAPSGWALDYWGQGVLVTVSS
VL: SYELTQSPSVSVSPGQPASITCSGDKLGDKYACWYQQKPGQVPVLVIYEDTKRPSGIPERFSGSNSGNTATLTISGVEAGDEADYYCQAWDSITHVVFGGGTRLTVL
B3: RM JR4 IgG1 (antibody, V domains shown)
VH: EVQLVESGPGLVKPLETLSLTCAVPGGSIRRNYWSWIRQPPGKGLEWIGHSYGSGGSTNYNPSLESRVTLSVDTSKNLFSLKLTSVTAADTAVYYCARTVWYYTSGTHYFDHWGQGVLVTVSS
VL: QSVLTQPPSVSAAPGQKVTISCSGSSSNIGRSYVSWYQQVPGAAPKLLIYDTNKRPSGVSDRFSGSKSGSSASLAITGLQTGDEADYYCGAWDGSLNVHIFGSGTKLTVL
B4: DH677.3 (human IgG1) (antibody, V domains shown)
VH: QVQLVQSGAEVQKPGASVKVSCKASGYTFASYDINWVRQATGQGLEWMGWMNPKTGNTGYAQKFQGRVTLTRNTSISTAYMELTSLRSEDTAVYYCATYRIIAAVGYRYFQYWGQGTLVTVSS
VL: DIQLTQSPSSLSASVGDSVTITCRASQGFGNYLAWYQQRPGKVPEVLIYAATTLQSGVPSRFSGSGSGTDFTLTISSLQPEDVATYYCQKYNSAPFTFGQGTRLEIK
B5: RhDH677.3 IgG1 (antibody, V domains shown)
VH: B4 VH with Q12K, V20L, A30T, T41P, L70M, N73D, I76T, T84S, T117A
VL: B4 VL with D1A, L4M, S18K, R39K, E45K, V46L, G57E
B6: DH827 (human IgG1) (antibody, V domains shown)
VH: EVQLVESGGGVVQPGRSLRLSCAASGFTFSNCAMHWVRQAPGKGLEWVAVISYHGSNKYYADYVKGRFTISRDNSKSTVYLQMNSPRAEDTAVYYCAKEGGAPSGWALDYWGQGTLVTVSS
VL: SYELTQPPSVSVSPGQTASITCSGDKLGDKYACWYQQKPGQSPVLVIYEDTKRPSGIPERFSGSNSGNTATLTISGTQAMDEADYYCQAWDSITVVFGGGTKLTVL
B7: synthetic gp41 peptide (residues 596-606) with C-terminal amidation (peptide)
chain: WGCSGKLICTT-NH2
modifications: ends and bridges not checked

Columns and labels:
Experiment in all cases: SPR
[1] = target: B7
[2] = target: B7
[3] = target: T1, V2 peptide corresponding to the clade A/E 92TH023 gp120 V2 loop sequence (residues 167-184) (HIV-1 clade A/E 92TH023)
[4] = target: T1, V2 peptide corresponding to the clade …; remark: listed apart in the source
[5] = target: monomeric full length single chain (FLSC), a covalent dimer of gp120BaL and CD4 (HIV-1 BaL | , UniProt P01730)
[6] = target: 7B2

What does the source list for B1?
koff [1]: 0.000534 s⁻¹; Kd [2]: 583 nM

What does the source list for B2?
koff [3]: 0.000486 s⁻¹; Kd [4]: 2730 nM

Which results are given for B3?
Kd [5]: 0.85 nM; koff [5]: 0.00013 s⁻¹

How did the Kd [5] turn out when B4 was run?
Its Kd is 0.29 nM.

And the koff [5]?
The koff was 4.05e-05 s⁻¹.

What does the source list for B5?
Kd [5]: 2.54 nM; koff [5]: 0.000189 s⁻¹

Which results are given for B6?
koff [3]: 0.0069 s⁻¹; Kd [4]: 3800 nM

Which results are given for B7?
Kd [6]: 634 nM; koff [6]: 0.000654 s⁻¹
